How the values were obtained:
Test in all cases: peptide array of 15-mer IL-13 peptides
[1] = target: IL-13 peptide 24 (…) (human)
[2] = target: T1, IL-13 peptide 18 (LINVSGCSAIEKTQR) (human)
T1 peptide: LINVSGCSAIEKTQR
Experimental: (§1) The sequence of IL-13 was probed at the peptide level to identify the binding site with ANTIBODY 01951/G12. Thirty four 15-mer peptides were synthesized in order to scan the entire sequence with 12 residue overlap starting from the N-terminus. The synthesis of the peptides, preparation of the peptide-array slides, incubation with antibodies and data analysis where done as described by Maksimov et al. (PLoS ONE 7(3): e34212).
(§2) The binding signal intensity (light unit) observed is reported for each peptide, in column 1 against a control unrelated human antibody and in column 2 against ANTIBODY 01951/G12. Signals above 10000 Light Units are considered as being significant. 2 overlapping peptides in the set of the 34 peptides produced a signal above that threshold, peptide 22 ([…]) (SEQ ID NO: 31) and peptide 23 ([…]) (SEQ ID NO: 32). The overlapping sequence between both peptides is […] (SEQ ID NO: 33).

[3] = target: T2, IL-13 peptide 11 (NGSMVWSINLTAGMY) (human)
T2 peptide: NGSMVWSINLTAGMY
Experimental: as §1, §2

[4] = target: T3, IL-13 peptide 32 (AQFVKDLLLHLKKLF) (human)
T3 peptide: AQFVKDLLLHLKKLF
Experimental: as §1, §2

[5] = target: T4, IL-13 peptide 5 (ELIEELVNITQNQKA) (human)
T4 peptide: ELIEELVNITQNQKA
Experimental: as §1, §2

[6] = target: T5, IL-13 peptide 27 (GQFSSLHVRDTKIEV) (human)
T5 peptide: GQFSSLHVRDTKIEV
Experimental: as §1, §2

[7] = target: T6, IL-13 peptide 14 (LTAGMYCAALESLIN) (human)
T6 peptide: LTAGMYCAALESLIN
Experimental: as §1, §2

[8] = target: T7, IL-13 peptide 3 (PSTALRELIEELVNI) (human)
T7 peptide: PSTALRELIEELVNI
Experimental: as §1, §2

[9] = target: T8, IL-13 peptide 16 (CAALESLINVSGCSA) (human)
T8 peptide: CAALESLINVSGCSA
Experimental: as §1, §2

[10] = target: T9, IL-13 peptide 30 (DTKIEVAQFVKDLLL) (human)
T9 peptide: DTKIEVAQFVKDLLL
Experimental: as §1, §2

[11] = target: T10, IL-13 peptide 15 (GMYCAALESLINVSG) (human)
T10 peptide: GMYCAALESLINVSG
Experimental: as §1, §2

[12] = target: T11, IL-13 peptide 19 (VSGCSAIEKTQRMLS) (human)
T11 peptide: VSGCSAIEKTQRMLS
Experimental: as §1, §2

[13] = target: T12, IL-13 peptide 22 (TQRMLSGFCPHKVSA) (human)
T12 peptide: TQRMLSGFCPHKVSA
Experimental: as §1, §2

[14] = target: T13, IL-13 peptide 34 (LLLHLKKLFREGRFN) (human)
T13 peptide: LLLHLKKLFREGRFN
Experimental: as §1, §2

[15] = target: T14, IL-13 peptide 9 (QKAPLCNGSMVWSIN) (human)
T14 peptide: QKAPLCNGSMVWSIN
Experimental: as §1, §2

[16] = target: T15, IL-13 peptide 33 (VKDLLLHLKKLFREG) (human)
T15 peptide: VKDLLLHLKKLFREG
Experimental: as §1, §2

[17] = target: T16, IL-13 peptide 8 (TQNQKAPLCNGSMVW) (human)
T16 peptide: TQNQKAPLCNGSMVW
Experimental: as §1, §2

[18] = target: T17, IL-13 peptide 6 (EELVNITQNQKAPLC) (human)
T17 peptide: EELVNITQNQKAPLC
Experimental: as §1, §2

[19] = target: T18, IL-13 peptide 13 (SINLTAGMYCAALES) (human)
T18 peptide: SINLTAGMYCAALES
Experimental: as §1, §2

[20] = target: T19, IL-13 peptide 29 (HVRDTKIEVAQFVKD) (human)
T19 peptide: HVRDTKIEVAQFVKD
Experimental: as §1, §2

[21] = target: T20, IL-13 peptide 4 (ALRELIEELVNITQN) (human)
T20 peptide: ALRELIEELVNITQN
Experimental: as §1, §2

[22] = target: T21, IL-13 peptide 1 (SPGPVPPSTALRELI) (human)
T21 peptide: SPGPVPPSTALRELI
Experimental: as §1, §2

[23] = target: T22, IL-13 peptide 21 (IEKTQRMLSGFCPHK) (human)
T22 peptide: IEKTQRMLSGFCPHK
Experimental: as §1, §2

[24] = target: T23, IL-13 peptide 2 (PVPPSTALRELIEEL) (human)
T23 peptide: PVPPSTALRELIEEL
Experimental: as §1, §2

[25] = target: T24, IL-13 peptide 25 (PHKVSAGQFSSLHVR) (human)
T24 peptide: PHKVSAGQFSSLHVR
Experimental: as §1, §2

[26] = target: T25, IL-13 peptide 28 (SSLHVRDTKIEVAQF) (human)
T25 peptide: SSLHVRDTKIEVAQF
Experimental: as §1, §2

[27] = target: T26, IL-13 peptide 12 (MVWSINLTAGMYCAA) (human)
T26 peptide: MVWSINLTAGMYCAA
Experimental: as §1, §2

[28] = target: T27, IL-13 peptide 7 (VNITQNQKAPLCNGS) (human)
T27 peptide: VNITQNQKAPLCNGS
Experimental: as §1, §2

[29] = target: T28, IL-13 peptide 17 (LESLINVSGCSAIEK) (human)
T28 peptide: LESLINVSGCSAIEK
Experimental: as §1, §2

[30] = target: T29, IL-13 peptide 10 (PLCNGSMVWSINLTA) (human)
T29 peptide: PLCNGSMVWSINLTA
Experimental: as §1, §2

[31] = target: T30, IL-13 peptide 26 (VSAGQFSSLHVRDTK) (human)
T30 peptide: VSAGQFSSLHVRDTK
Experimental: as §1, §2

[32] = target: T31, IL-13 peptide 20 (CSAIEKTQRMLSGFC) (human)
T31 peptide: CSAIEKTQRMLSGFC
Experimental: as §1, §2

[33] = target: T32, IL-13 peptide 23 (MLSGFCPHKVSAGQF) (human)
T32 peptide: MLSGFCPHKVSAGQF
Experimental: as §1, §2

[34] = target: T33, IL-13 peptide 31 (IEVAQFVKDLLLHLK) (human)
T33 peptide: IEVAQFVKDLLLHLK
Experimental: as §1, §2

B1: ANTIBODY 01951/G12 (antibody, human IgG1, kappa, V domains shown)
VH: EVQLVESGGGVVQPGRSLRLSCAASGFTFSSYGMHWVRQAPGKGLEWVAIIWYDGSNKYYADSVKGRFTISRDNSKNTLYLQMNSLRAEDTAVYYCARLWFGDLDAFDIWGQGTMVTVSS
VL: EIVLTQSPATLSLSPGERAILSCRAGQSVSSYLVWYQQKPGQAPRLLIYDASNRATGIPARFSGSGSGTDFTLTISSLEPEDFAVYYCQQRSSWPPVYTFGQGTKLEIKR
notes: also called target antibody
- Corrected Mean signal intensity (Light Unit) [1]: 493 Light Unit
- Corrected Mean signal intensity (Light Unit) [2]: -539 Light Unit
- Corrected Mean signal intensity (Light Unit) [3]: -132 Light Unit
- Corrected Mean signal intensity (Light Unit) [4]: -746 Light Unit
- Corrected Mean signal intensity (Light Unit) [5]: -131 Light Unit
- Corrected Mean signal intensity (Light Unit) [6]: -291 Light Unit
- Corrected Mean signal intensity (Light Unit) [7]: -99.7 Light Unit
- Corrected Mean signal intensity (Light Unit) [8]: -210 Light Unit
- Corrected Mean signal intensity (Light Unit) [9]: -587 Light Unit
- Corrected Mean signal intensity (Light Unit) [10]: -438 Light Unit
- Corrected Mean signal intensity (Light Unit) [11]: -987 Light Unit
- Corrected Mean signal intensity (Light Unit) [12]: -830 Light Unit
- Corrected Mean signal intensity (Light Unit) [13]: 38600 Light Unit
- Corrected Mean signal intensity (Light Unit) [14]: 7150 Light Unit
- Corrected Mean signal intensity (Light Unit) [15]: -518 Light Unit
- Corrected Mean signal intensity (Light Unit) [16]: -203 Light Unit
- Corrected Mean signal intensity (Light Unit) [17]: -350 Light Unit
- Corrected Mean signal intensity (Light Unit) [18]: 1 Light Unit
- binding result [18]: no binding (tested: 10000 Light Units)
- Corrected Mean signal intensity (Light Unit) [19]: -757 Light Unit
- Corrected Mean signal intensity (Light Unit) [20]: -734 Light Unit
- Corrected Mean signal intensity (Light Unit) [21]: -207 Light Unit
- Corrected Mean signal intensity (Light Unit) [22]: -1070 Light Unit
- Corrected Mean signal intensity (Light Unit) [23]: 2210 Light Unit
- Corrected Mean signal intensity (Light Unit) [24]: -1130 Light Unit
- Corrected Mean signal intensity (Light Unit) [25]: -386 Light Unit
- Corrected Mean signal intensity (Light Unit) [26]: -170 Light Unit
- Corrected Mean signal intensity (Light Unit) [27]: 56.5 Light Unit
- binding result [27]: no binding (tested: 10000 Light Units)
- Corrected Mean signal intensity (Light Unit) [28]: -405 Light Unit
- Corrected Mean signal intensity (Light Unit) [29]: -340 Light Unit
- Corrected Mean signal intensity (Light Unit) [30]: -982 Light Unit
- Corrected Mean signal intensity (Light Unit) [31]: -778 Light Unit
- Corrected Mean signal intensity (Light Unit) [32]: -721 Light Unit
- Corrected Mean signal intensity (Light Unit) [33]: 48100 Light Unit
- Corrected Mean signal intensity (Light Unit) [34]: -810 Light Unit
